In this assay the target is mannose receptor (on NR8383 rat alveolar macrophages) (rat). Put plainly: cell-based or functional assay.

Take “prh-GCD cross-linked with bis-NHS-PEG5 at a 50:1 bis-NHS-PEG5:GCD molar ratio (from UniProt P04062 40-536) (enzyme)”: the uptake by rat alveolar macrophages in the absence of mannan (GCD activity in cell lysate, pNP-G assay) was 200 ng/mL lysate and the uptake by rat alveolar macrophages, reduction by mannan (GCD activity in cell lysate, pNP-G assay) came out at 85%.

“Plant recombinant human glucocerebrosidase (prh-GCD) (from UniProt P04062 40-536) (enzyme)”: the uptake by rat alveolar macrophages in the absence of mannan (GCD activity in cell lysate, pNP-G assay) worked out at 333 ng/mL lysate and the uptake by rat alveolar macrophages, reduction by mannan (GCD activity in cell lysate, pNP-G assay) stood at 90%.

Values taken from patent publication US20120328589A1.
